In US20140087995A1 (published 2014):
Numbered stars: 1 amine (or outer) side, 2 acyl side, 3 side chain; on linkers, the order of the positions; unused ones are H or OH. Bridge positions count the residues as written; N and C are the ends. Side chains are listed from the residue outwards. Ends that are not written are not given here. * marks the point of attachment. C20 diacid = O=C(O)CCCCCCCCCCCCCCCCCCC(=O)*; γGlu = O=C(O)[C@H](CCC(=O)[*:2])N[*:1]; AEEA = NCCOCCOCC(=O)O

T1: rat amylin receptor (rat calcitonin receptor + rat RAMP 3) (rat, UniProt P32214 25-516; Q9JJ73 23-147)
T1 construct: whole, on cells; Membranes prepared from transiently transfected BHK tk'ts 13 cells; also called rAmylin-R; rat amylin 3(a) receptor
T1 sequence (looked up) 1: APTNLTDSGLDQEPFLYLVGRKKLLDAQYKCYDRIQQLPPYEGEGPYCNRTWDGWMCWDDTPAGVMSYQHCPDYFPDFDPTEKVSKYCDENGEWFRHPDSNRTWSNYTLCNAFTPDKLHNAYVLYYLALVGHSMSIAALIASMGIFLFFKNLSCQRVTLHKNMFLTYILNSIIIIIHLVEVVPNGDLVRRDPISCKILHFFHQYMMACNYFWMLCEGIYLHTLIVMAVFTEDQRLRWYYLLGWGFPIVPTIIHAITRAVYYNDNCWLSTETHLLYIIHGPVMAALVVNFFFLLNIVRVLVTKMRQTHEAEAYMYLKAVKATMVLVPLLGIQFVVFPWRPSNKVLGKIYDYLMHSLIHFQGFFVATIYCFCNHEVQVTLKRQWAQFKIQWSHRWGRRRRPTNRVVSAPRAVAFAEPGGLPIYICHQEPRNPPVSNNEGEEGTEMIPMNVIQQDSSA
T1 sequence (looked up) 2: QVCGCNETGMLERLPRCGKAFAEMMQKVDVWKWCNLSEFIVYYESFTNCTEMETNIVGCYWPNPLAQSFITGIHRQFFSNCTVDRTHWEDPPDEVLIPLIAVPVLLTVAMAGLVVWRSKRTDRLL

T2: rat calcitonin receptor (rat, UniProt P32214 25-516)
T2 construct: whole, on cells; Membranes prepared from transiently transfected BHK tk'ts 13 cells; also called rCTR; rat calcitonin (a) receptor
T2 sequence (looked up): T1 sequence (looked up) 1

T3: human calcitonin receptor (human, UniProt P30988 25-474)
T3 construct: whole, on cells; Membranes from stably transfected BHK cells; also called hCTR; hCT
T3 sequence (looked up): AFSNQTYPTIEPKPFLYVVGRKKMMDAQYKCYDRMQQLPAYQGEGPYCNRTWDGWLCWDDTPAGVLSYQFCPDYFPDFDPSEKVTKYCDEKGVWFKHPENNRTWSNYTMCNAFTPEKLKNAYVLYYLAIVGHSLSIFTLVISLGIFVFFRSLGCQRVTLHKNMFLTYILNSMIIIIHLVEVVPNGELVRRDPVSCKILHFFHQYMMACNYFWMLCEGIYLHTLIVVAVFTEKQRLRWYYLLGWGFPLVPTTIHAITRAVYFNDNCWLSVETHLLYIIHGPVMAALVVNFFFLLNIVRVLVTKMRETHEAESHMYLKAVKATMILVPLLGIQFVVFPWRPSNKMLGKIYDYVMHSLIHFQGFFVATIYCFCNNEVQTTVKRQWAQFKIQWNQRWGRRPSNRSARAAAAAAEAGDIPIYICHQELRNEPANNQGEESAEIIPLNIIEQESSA

B1: N^ε1-[2-[2-[2-[[2-[2-[2-[[(4S)-4-carboxy-4-(19-carboxynonadecanoylamino)butanoyl]amino]ethoxy]ethoxy]acetyl]amino]ethoxy]ethoxy]acetyl]-[Arg17,Pro21,Pro27,Arg34 … (peptide)
peptide: K([AEEA-AEEA-γGlu-C20 diacid])CNTATCATQRLANFLRHSSPNFGAIPSSTNVGRNTY-NH2
modifications: disulfide 2-7; N-terminus assumed
SMILES: CC[C@H](C)[C@H](NC(=O)[C@H](C)NC(=O)CNC(=O)[C@H](Cc1ccccc1)NC(=O)[C@H](CC(N)=O)NC(=O)[C@@H]1CCCN1C(=O)[C@H](CO)NC(=O)[C@H](CO)NC(=O)[C@H](Cc1c[nH]cn1)NC(=O)[C@H](CCCNC(=N)N)NC(=O)[C@H](CC(C)C)NC(=O)[C@H](Cc1ccccc1)NC(=O)[C@H](CC(N)=O)NC(=O)[C@H](C)NC(=O)[C@H](CC(C)C)NC(=O)[C@H](CCCNC(=N)N)NC(=O)[C@H](CCC(N)=O)NC(=O)[C@@H](NC(=O)[C@H](C)NC(=O)[C@@H]1CSSC[C@H](NC(=O)[C@@H](N)CCCCNC(=O)COCCOCCNC(=O)COCCOCCNC(=O)CC[C@H](NC(=O)CCCCCCCCCCCCCCCCCCC(=O)O)C(=O)O)C(=O)N[C@@H](CC(N)=O)C(=O)N[C@@H]([C@@H](C)O)C(=O)N[C@@H](C)C(=O)N[C@@H]([C@@H](C)O)C(=O)N1)[C@@H](C)O)C(=O)N1CCC[C@H]1C(=O)N[C@@H](CO)C(=O)N[C@@H](CO)C(=O)N[C@H](C(=O)N[C@@H](CC(N)=O)C(=O)N[C@H](C(=O)NCC(=O)N[C@@H](CCCNC(=N)N)C(=O)N[C@@H](CC(N)=O)C(=O)N[C@H](C(=O)N[C@@H](Cc1ccc(O)cc1)C(N)=O)[C@@H](C)O)C(C)C)[C@@H](C)O
notes: also called compound 95
B2: N^ε1-[2-[2-[2-[[2-[2-[2-[[(4S)-4-carboxy-4-(19-carboxynonadecanoylamino)butanoyl]amino]ethoxy]ethoxy]acetyl]amino]ethoxy]ethoxy]acetyl]-[Arg17,Pro21,Pro27,Pro31 … (peptide)
peptide: K([AEEA-AEEA-γGlu-C20 diacid])CNTATCATQRLANFLRHSSPNFGAIPSSTPVGSNTY-NH2
modifications: disulfide 2-7; N-terminus assumed
SMILES: CC[C@H](C)[C@H](NC(=O)[C@H](C)NC(=O)CNC(=O)[C@H](Cc1ccccc1)NC(=O)[C@H](CC(N)=O)NC(=O)[C@@H]1CCCN1C(=O)[C@H](CO)NC(=O)[C@H](CO)NC(=O)[C@H](Cc1c[nH]cn1)NC(=O)[C@H](CCCNC(=N)N)NC(=O)[C@H](CC(C)C)NC(=O)[C@H](Cc1ccccc1)NC(=O)[C@H](CC(N)=O)NC(=O)[C@H](C)NC(=O)[C@H](CC(C)C)NC(=O)[C@H](CCCNC(=N)N)NC(=O)[C@H](CCC(N)=O)NC(=O)[C@@H](NC(=O)[C@H](C)NC(=O)[C@@H]1CSSC[C@H](NC(=O)[C@@H](N)CCCCNC(=O)COCCOCCNC(=O)COCCOCCNC(=O)CC[C@H](NC(=O)CCCCCCCCCCCCCCCCCCC(=O)O)C(=O)O)C(=O)N[C@@H](CC(N)=O)C(=O)N[C@@H]([C@@H](C)O)C(=O)N[C@@H](C)C(=O)N[C@@H]([C@@H](C)O)C(=O)N1)[C@@H](C)O)C(=O)N1CCC[C@H]1C(=O)N[C@@H](CO)C(=O)N[C@@H](CO)C(=O)N[C@H](C(=O)N1CCC[C@H]1C(=O)N[C@H](C(=O)NCC(=O)N[C@@H](CO)C(=O)N[C@@H](CC(N)=O)C(=O)N[C@H](C(=O)N[C@@H](Cc1ccc(O)cc1)C(N)=O)[C@@H](C)O)C(C)C)[C@@H](C)O
notes: also called compound 96
B3: N^ε1-[2-[2-[2-[[2-[2-[2-[[(4S)-4-carboxy-4-(19-carboxynonadecanoylamino)butanoyl]amino]ethoxy]ethoxy]acetyl]amino]ethoxy]ethoxy]acetyl]-[Arg17,Pro21,Pro27,His34 … (peptide)
peptide: K([AEEA-AEEA-γGlu-C20 diacid])CNTATCATQRLANFLRHSSPNFGAIPSSTNVGHNTY-NH2
modifications: disulfide 2-7; N-terminus assumed
SMILES: CC[C@H](C)[C@H](NC(=O)[C@H](C)NC(=O)CNC(=O)[C@H](Cc1ccccc1)NC(=O)[C@H](CC(N)=O)NC(=O)[C@@H]1CCCN1C(=O)[C@H](CO)NC(=O)[C@H](CO)NC(=O)[C@H](Cc1c[nH]cn1)NC(=O)[C@H](CCCNC(=N)N)NC(=O)[C@H](CC(C)C)NC(=O)[C@H](Cc1ccccc1)NC(=O)[C@H](CC(N)=O)NC(=O)[C@H](C)NC(=O)[C@H](CC(C)C)NC(=O)[C@H](CCCNC(=N)N)NC(=O)[C@H](CCC(N)=O)NC(=O)[C@@H](NC(=O)[C@H](C)NC(=O)[C@@H]1CSSC[C@H](NC(=O)[C@@H](N)CCCCNC(=O)COCCOCCNC(=O)COCCOCCNC(=O)CC[C@H](NC(=O)CCCCCCCCCCCCCCCCCCC(=O)O)C(=O)O)C(=O)N[C@@H](CC(N)=O)C(=O)N[C@@H]([C@@H](C)O)C(=O)N[C@@H](C)C(=O)N[C@@H]([C@@H](C)O)C(=O)N1)[C@@H](C)O)C(=O)N1CCC[C@H]1C(=O)N[C@@H](CO)C(=O)N[C@@H](CO)C(=O)N[C@H](C(=O)N[C@@H](CC(N)=O)C(=O)N[C@H](C(=O)NCC(=O)N[C@@H](Cc1c[nH]cn1)C(=O)N[C@@H](CC(N)=O)C(=O)N[C@H](C(=O)N[C@@H](Cc1ccc(O)cc1)C(N)=O)[C@@H](C)O)C(C)C)[C@@H](C)O
notes: also called compound 97
B4: N^ε1-[2-[2-[2-[[2-[2-[2-[[(4S)-4-carboxy-4-(19-carboxynonadecanoylamino)butanoyl]amino]ethoxy]ethoxy]acetyl]amino]ethoxy]ethoxy]acetyl]-[Arg17,Pro21,Pro27,Pro34 … (peptide)
peptide: K([AEEA-AEEA-γGlu-C20 diacid])CNTATCATQRLANFLRHSSPNFGAIPSSTNVGPNTY-NH2
modifications: disulfide 2-7; N-terminus assumed
SMILES: CC[C@H](C)[C@H](NC(=O)[C@H](C)NC(=O)CNC(=O)[C@H](Cc1ccccc1)NC(=O)[C@H](CC(N)=O)NC(=O)[C@@H]1CCCN1C(=O)[C@H](CO)NC(=O)[C@H](CO)NC(=O)[C@H](Cc1c[nH]cn1)NC(=O)[C@H](CCCNC(=N)N)NC(=O)[C@H](CC(C)C)NC(=O)[C@H](Cc1ccccc1)NC(=O)[C@H](CC(N)=O)NC(=O)[C@H](C)NC(=O)[C@H](CC(C)C)NC(=O)[C@H](CCCNC(=N)N)NC(=O)[C@H](CCC(N)=O)NC(=O)[C@@H](NC(=O)[C@H](C)NC(=O)[C@@H]1CSSC[C@H](NC(=O)[C@@H](N)CCCCNC(=O)COCCOCCNC(=O)COCCOCCNC(=O)CC[C@H](NC(=O)CCCCCCCCCCCCCCCCCCC(=O)O)C(=O)O)C(=O)N[C@@H](CC(N)=O)C(=O)N[C@@H]([C@@H](C)O)C(=O)N[C@@H](C)C(=O)N[C@@H]([C@@H](C)O)C(=O)N1)[C@@H](C)O)C(=O)N1CCC[C@H]1C(=O)N[C@@H](CO)C(=O)N[C@@H](CO)C(=O)N[C@H](C(=O)N[C@@H](CC(N)=O)C(=O)N[C@H](C(=O)NCC(=O)N1CCC[C@H]1C(=O)N[C@@H](CC(N)=O)C(=O)N[C@H](C(=O)N[C@@H](Cc1ccc(O)cc1)C(N)=O)[C@@H](C)O)C(C)C)[C@@H](C)O
notes: also called compound 98

The binders below were run against T1, rat amylin receptor (rat calcitonin …) (assay: SPA competition vs 125I-rat amylin, membranes (Assay VI)).
In the case of B1, the IC50 is reported as 5.45 nM. With B2 the IC50 was 0.529 nM. Binder B3 has an IC50 of 2.24 nM. B4 showed an IC50 of 0.137 nM.

These binders were tested against T2, rat calcitonin receptor (assay: SPA competition vs 125I-calcitonin, membranes (Assay VIII)).
B1 was tested, and the IC50 was 388 nM. With B2 the IC50 was 62.2 nM. B3 was tested, and the IC50 was 159 nM. Work on B4 yielded an IC50 of 24.1 nM.

Each binder was assayed against T3, human calcitonin receptor (assay: ratio of IC50 on human calcitonin receptor to IC50 on human amylin receptor).
Description: The resulting pellet was resuspended, homogenized and centrifuged (20.000 rpm, 15 min) in a buffer containing 20 mM Na-HEPES and 0.1 mM EDTA (pH 7.4, buffer 2). The resulting pellet was resuspended in buffer 2 and protein concentration was measured (BCA protein Assay, Pierce). The homogenate was kept cold during the whole procedure. The membranes were kept at −80° C. until use. The assay was performed in a 384 well Optiplate (PerkinElmer) in a total volume of 40 ul. Membranes were mixed with SPA beads. Final concentration of membranes 35 ng/μL final and SPA beads was 0.05 mg/well. Test-compounds were dissolved in DMSO and further diluted in assay buffer (50 mM Hepes, pH 7.4, 1 mM CaCl2, 5 mM MgCl₂, 0.1% OA and 0.02% Tween20). […] The final mixture was incubated with shaking at 400 rpm for 120 min at 25° C. prior to centrifugation (1500 rpm, 10 min). Samples were analyzed on TopCounter™ (Packard). The IC₅₀ was calculated using (one site binding competition analysis) GraphPad Prism5 as a measure of receptor affinity.
Membranes were prepared in the following way; the cells were rinsed with PBS and incubated with Versene for approximately 5 min before harvesting. The cells were flushed with PBS and the cell-suspension was centrifuged for 5 min at 1000 rpm. Cells were homogenized (Ultrathurrax) in a buffer containing 20 mM Na-HEPES and 10 mM EDTA (pH 7.4) and centrifuged at 20.000 rpm for 15 min. The resulting pellet was resuspended, homogenized and centrifuged (20.000 rpm, 15 min) in a buffer containing 20 mM Na-HEPES and 0.1 mM EDTA (pH 7.4, buffer 2). The resulting pellet was resuspended in buffer 2 and protein concentration was measured (BCA protein Assay, Pierce). The homogenate was kept cold during the whole procedure. The membranes were kept at −80° C. until use. Assay was performed in a 384 well Optiplate (PerkinElmer) in a total volume of 40 ul. Membranes were mixed with SPA beads.
With B1 the “Ratio hCT/hAmylin binding” value was 63.4. In the case of B2, the “Ratio hCT/hAmylin binding” value is reported as 79.6. B3 was tested, and the “Ratio hCT/hAmylin binding” value was 104. For B4, the “Ratio hCT/hAmylin binding” value was 74.1.

Each binder was assayed against T2, rat calcitonin receptor (assay: ratio of IC50 on rat calcitonin receptor to IC50 on rat amylin receptor).
B1 was tested, and the “Ratio rCT/rAmylin binding” value was 71.3. B2 was tested, and the “Ratio rCT/rAmylin binding” value was 118. In the case of B3, the “Ratio rCT/rAmylin binding” value is reported as 71.1. In the case of B4, the “Ratio rCT/rAmylin binding” value is reported as 176.
